Patent US20030022827A1

Tests used:
[1] = molecular target: IL-10R subtype I, which consists of an IL-10R1 and an IL-10R2 (human) (UniProt Q13651); experiment: cell-based or functional assay
[2] = molecular target: IL-10R1 (human) (UniProt Q13651); experiment: cell-based or functional assay
IL-10R1 (human), sequence (Q13651 22-578): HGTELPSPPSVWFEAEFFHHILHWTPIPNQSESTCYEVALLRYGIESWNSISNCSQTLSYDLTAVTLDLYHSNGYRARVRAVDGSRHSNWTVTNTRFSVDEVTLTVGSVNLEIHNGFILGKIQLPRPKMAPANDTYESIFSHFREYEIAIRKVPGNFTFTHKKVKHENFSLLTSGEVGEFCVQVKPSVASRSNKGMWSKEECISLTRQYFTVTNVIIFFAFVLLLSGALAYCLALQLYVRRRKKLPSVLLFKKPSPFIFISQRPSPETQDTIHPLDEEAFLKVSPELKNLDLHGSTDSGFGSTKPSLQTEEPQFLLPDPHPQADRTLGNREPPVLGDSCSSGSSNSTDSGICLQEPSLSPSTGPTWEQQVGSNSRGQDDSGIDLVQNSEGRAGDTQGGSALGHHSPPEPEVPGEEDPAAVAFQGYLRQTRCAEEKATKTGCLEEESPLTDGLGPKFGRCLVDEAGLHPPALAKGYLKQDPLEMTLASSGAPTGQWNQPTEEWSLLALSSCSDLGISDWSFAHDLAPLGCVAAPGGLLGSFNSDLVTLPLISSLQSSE

IL-10R subtype I, which consists of an IL-10R1 and an IL-10R2 (human), sequence (Q13651 22-578, chain 1 of 2): as the sequence (Q13651 22-578) above
IL-10R subtype I, which consists of an IL-10R1 and an IL-10R2 (human), sequence (Q08334 20-325, chain 2 of 2, further chain): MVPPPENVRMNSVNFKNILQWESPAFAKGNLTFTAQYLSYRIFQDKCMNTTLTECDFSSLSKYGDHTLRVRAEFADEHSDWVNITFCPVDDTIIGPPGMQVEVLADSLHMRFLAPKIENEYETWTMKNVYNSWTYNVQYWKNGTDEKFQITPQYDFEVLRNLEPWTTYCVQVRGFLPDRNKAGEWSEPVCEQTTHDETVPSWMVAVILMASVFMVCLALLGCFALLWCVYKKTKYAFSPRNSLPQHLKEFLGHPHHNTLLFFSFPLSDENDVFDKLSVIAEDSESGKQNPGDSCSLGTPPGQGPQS

## Epstein-Barr virus-coded protein BCRF1 (from UniProt P03180 24-170) (ligand)
[1]
  expression of the low-affine IgG receptor CD16 on monocytes (flow cytometry): 30 to 100 ng/mL
[2]
  inhibition of LPS-induced TNF-α release of PBMC (ELISA of supernatant): 3 ng/mL
